The record followed here is patent US20190144565A1 (UCB, published 2019).

T1: sFcεRIα, the extracellular portion of the alpha chain of the human high affinity IgE receptor (human, UniProt P12319 26-205)
T1 construct: extracellular domain; also called sFcERIa; Alexa488 labelled sFcεRIα
T1 sequence (looked up): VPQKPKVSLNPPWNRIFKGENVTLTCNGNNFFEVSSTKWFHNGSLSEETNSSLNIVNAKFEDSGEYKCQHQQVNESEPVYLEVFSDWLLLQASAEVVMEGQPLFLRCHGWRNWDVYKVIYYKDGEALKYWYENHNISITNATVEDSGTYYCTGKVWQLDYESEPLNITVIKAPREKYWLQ

B1: sFcεRIα-IgG4-Fc fusion protein (α-γ) (Fc fusion, UniProt P12319 26-205, looked up)
chain: T1 sequence (looked up)
notes: extracellular domain; also called αγ-fusion protein; Alexa Fluor 647 labeled sFcεRIα-IgG4-Fc; not shown: IgG4 Fc
B2: IgE-Fc according to Seq. ID No. 108 (V224-K547) with the mutations N265Q & N371Q (other)
chain: VASRDFTPPTVKILQSSCDGGGHFPPTIQLLCLVSGYTPGTIQITWLEDGQVMDVDLSTASTTQEGELASTQSELTLSQKHWLSDRTYTCQVTYQGHTFEDSTKKCADSNPRGVSAYLSRPSPFDLFIRKSPTITCLVVDLAPSKGTVQLTWSRASGKPVNHSTRKEEKQRNGTLTVTSTLPVGTRDWIEGETYQCRVTHPHLPRALMRSTTKTSGPRAAPEVYAFATPEWPGSRDKRTLACLIQNFMPEDISVQWLHNEVQLPDARHSTTQPRKTKGSGFFVFSRLEVTRAEWEQKDEFICRAVHEAASPSQTVQRAVSVNPGK
notes: also called IgE-Fc (N265Q, N371Q); terbium labeled IgE-Fc

The target of experiment [1] is B2. The experiment in a line: TR-FRET; labelled αγ-fusion protein titrated on labelled IgE-Fc, no omalizumab Fab3. For orientation: TR-FRET usually uses a lanthanide donor and a delayed reading to cut background.
For experiment [2], the target named is B1. The description is as above.
For experiment [3], the target named is T1, sFcεRIα, the extracellular portion of …. Briefly: SPR; IgE-Fc captured on immobilised sFcεRIα. Background: SPR reads the build-up and loss of mass on a sensor chip optically.

Turning to B1, the 50% effective concentration (EC50 (read off the curve)) (commonly the concentration at which the effect is half-maximal) in experiment [1] is roughly 1 nM.
In the case of B2, the binding result in experiment [2] and in experiment [3] was “binds” throughout.
